Test results taken from patent publication US20110172168A1 (MEDIGENE, published 2011).

Target: T1, CEA-derived … (SEQ ID NO: 71)-HLA-A*0201 complex (biotin on the C-terminal biotinylation tag (enzymatic, BirA))
T1 construct: also called soluble biotinylated HLA-A2-peptide complex; not shown: C-terminal biotinylation tag that replaces the transmembrane and cytoplasmic domains
Assay: Biacore SPR, pMHC immobilised
Description: SPR measures changes in refractive index expressed in response units (RU) near a sensor surface within a small flow cell, a principle that can be used to detect receptor ligand interactions and to analyse their affinity and kinetic parameters. The probe flow cells were prepared by immobilising the pMHC complexes in flow cells via biotin-tag binding. The assay was then performed by passing soluble ILT over the surfaces of the different flow cells at a constant flow rate, measuring the SPR response in doing so.

Kd [nM] | koff [s⁻¹] | Binder
≤ 1000 | ≤ 2 | SEQ ID NO 7 (receptor) MAGHLPKPTLWAEPGSVITMDQPVTLRCQGGQETQEYRLYREKKTAPWITRIPQELVKKGQFPIPSITWEHAGRYRCYYGSDTSQWSASSDPLELVVTGVYIKPTLSAQPSPVVNSGGNVTLQCDSQVAFDGFILCKEGEDEHPQCLNSQPHARGSSRAIFSVGPVSPSRRWWYRCYAYPIWTPYEWSLPSDLLELDVDG
≤ 1000 | ≤ 2 | SEQ ID NO 23 (receptor) MAGHLPKPTLWAEPGSVITMDQPVTLRCQGGQETQEYRLYREKKTAPWITRIPQELVKKGQFPIPSITWEHAGRYRCYYGSDTSQWSASSDPLELVVTGVYIKPTLSAQPSPVVNSGGNVTLQCDSQVAFDGFILCKEGEDEHPQCLNSQPHARGSSRAIFSVGPVSPSRRWWYRCYAYVEWLPYEWSLPSDLLELDVDG
≤ 1000 | ≤ 2 | SEQ ID NO 32 (receptor) MAGHLPKPTLWAEPGSVITQGSPVTLRCQGGQETQEYRLYREKKTAPWITRIPQELVKKGQFPIPSITWEHAGRYRCYYGSDTSQWSASSDPLELVVTGVYIKPTLSAQPSPVVNSGGNVTLQCDSQVAFDGFILCKEGEDEHPQCLNSQPHARGSSRAIFSVGPVSPSRRWWYRCYAYVAWAPYEWSLPSDLLELDVDG
≤ 1000 | ≤ 2 | SEQ ID NO 11 (receptor) MAGHLPKPTLWAEPGSVITMDQPVTLRCQGGQETQEYRLYREKKTAPWITRIPQELVKKGQFPIPSITWEHAGRYRCYYGSDTSQWSASSDPLELVVTGVYIKPTLSAQPSPVVNSGGNVTLQCDSQVAFDGFILCKEGEDEHPQCLNSQPHARGSSRAIFSVGPVSPSRRWWYRCYAYVDWFPYEWSLPSDLLELDVDG
≤ 1000 | ≤ 2 | SEQ ID NO 13 (receptor) MAGHLPKPTLWAEPGSVITMDQPVTLRCQGGQETQEYRLYREKKTAPWITRIPQELVKKGQFPIPSITWEHAGRYRCYYGSDTSQWSASSDPLELVVTGVYIKPTLSAQPSPVVNSGGNVTLQCDSQVAFDGFILCKEGEDEHPQCLNSQPHARGSSRAIFSVGPVSPSRRWWYRCYAYPAWTPYEWSLPSDLLELDVDG
≤ 1000 | ≤ 2 | SEQ ID NO 17 (receptor) MAQHLPKPTLWAEPGSVITMDQPVTLRCQGGQETQEYRLYREKKTAPWITRIPQELVKKGQFPIPSITWEHAGRYRCYYGSDTSQWSASSDPLELVVTGVYIKPTLSAQPSPVVNSGGNVTLQCDSQVAYDGFILCKEGEDEHPQCLNSQPHARGSSRAIFSVGPVSPSRRWWYRCYAYDSNSPYEWSLPSDLLELDVDG
≤ 1000 | ≤ 2 | SEQ ID NO 36 (receptor) MAGHLPKPTLWAEPGSVITQGSPVTLRCQGGQETQEYRLYREKKTAPWITRIPQELVKKGQFPIPSITWEHAGRYRCYYGSDTSQWSASSDPLELVVTGVYIKPTLSAQPSPVVNSGGNVTLQCDSQVAFDGFILCKEGEDEHPQCLNSQPHARGSSRAIFSVGPVSPSRRWWYRCYAYPAWTPYEWSLPSDLLELDVDG
≤ 1000 | ≤ 2 | SEQ ID NO 40 (receptor) MAGHLPKPTLWAEPGSVITQGSPVTLRCQGGQETQEYRLYREKKTAPWITRIPQELVKKGQFPIPSITWEHAGRYRCYYGSDTSQWSASSDPLELVVTGVYIKPTLSAQPSPVVNSGGNVTLQCDSQVAFDGFILCKEGEDEHPQCLNSQPHARGSSRAIFSVGPVSPSRRWWYRCYAYMSWSPYEWSLPSDLLELDVDG
≤ 1000 | ≤ 2 | SEQ ID NO 20 (receptor) MAGHLPKPTLWAEPGSVITMDQPVTLRCQGGQETQEYRLYREKKTAPWITRIPQELVKKGQFPIPSITWEHAGRYRCYYGSDTSQWSASSDPLELVVTGVYIKPTLSAQPSPVVNSGGNVTLQCDSQVAFDGFILCKEGEDEHPQCLNSQPHARGSSRAIFSVGPVSPSRRWWYRCYAYPDFTPYEWSLPSDLLELDVDG
≤ 1000 | ≤ 2 | SEQ ID NO 21 (receptor) MAGHLPKPTLWAEPGSVITMDQPVTLRCQGGQETQEYRLYREKKTAPWITRIPQELVKKGQFPIPSITWEHAGRYRCYYGSDTSQWSASSDPLELVVTGVYIKPTLSAQPSPVVNSGGNVTLQCDSQVAFDGFILCKEGEDEHPQCLNSQPHARGSSRAIFSVGPVSPSRRWWYRCYAYPWFTPYEWSLPSDLLELDVDG
≤ 1000 | ≤ 2 | SEQ ID NO 16 (receptor) MAQHLPKPTLWAEPGSVITMDQPVTLRCQGGQETQEYRLYREKKTAPWITRIPQELVKKGQFPIPSITWEHAGRYRCYYGSDTSQWSASSDPLELVVTGVYIKPTLSAQPSPVVNSGGNVTLQCDSQVTFDGFILCKEGEDEHPQCLNSQPHARGSSRAIFSVGPVSPSRRWWYRCYAYDSNSPYEWSLPSDLLELDVDG
≤ 1000 | ≤ 2 | SEQ ID NO 43 (receptor) MAGHLPKPTLWAEPGSVITMDQPVTLRCQGGQETQEYRLYREKKTAPWITRIPQELVKKGQFPIPSITWEHAGRYRCYYGSDTSQWSASSDPLELVVTGVYIKPTLSAQPSPVVNSGGNVTLQCDSQVAFDGFILCKEGEDEHPQCLNSQPHARGSSRAIFSVGPVSPSRRWWYRCYAYMSYSPYEWSLPSDLLELDVDG
≤ 1000 | ≤ 2 | SEQ ID NO 14 (receptor) MAQHLPKPTLWAEPGSVITMDQPVTLRCQGGQETQEYRLYREKKTAPWITRIPQELVKKGQFPIPSITWEHAGRYRCYYGSDTSQWSASSDPLELVVTGVYIKPTLSAQPSPVVNSGGNVTLQCDSQVDFDGFILCKEGEDEHPQCLNSQPHARGSSRAIFSVGPVSPSRRWWYRCYAYDSNSPYEWSLPSDLLELDVDG
≤ 1000 | ≤ 2 | SEQ ID NO 38 (receptor) MAGHLPKPTLWAEPGSVITQGSPVTLRCQGGQETQEYRLYREKKTAPWITRIPQELVKKGQFPIPSITWEHAGRYRCYYGSDTSQWSASSDPLELVVTGVYIKPTLSAQPSPVVNSGGNVTLQCDSQVAFDGFILCKEGEDEHPQCLNSQPHARGSSRAIFSVGPVSPSRRWWYRCYAYMSWAPYEWSLPSDLLELDVDG
≤ 1000 | ≤ 2 | SEQ ID NO 9 (receptor) MAGHLPKPTLWAEPGSVITMDQPVTLRCQGGQETQEYRLYREKKTAPWITRIPQELVKKGQFPIPSITWEHAGRYRCYYGSDTSQWSASSDPLELVVTGVYIKPTLSAQPSPVVNSGGNVTLQCDSQVAFDGFILCKEGEDEHPQCLNSQPHARGSSRAIFSVGPVSPSRRWWYRCYAYMNWAPYEWSLPSDLLELDVDG
≤ 1000 | ≤ 2 | SEQ ID NO 30 (receptor) MAGHLPKPTLWAEPGSVITQGSPVTLRCQGGQETQEYRLYREKKTAPWITRIPQELVKKGQFPIPSITWEHAGRYRCYYGSDTSQWSASSDPLELVVTGVYIKPTLSAQPSPVVNSGGNVTLQCDSQVAFDGFILCKEGEDEHPQCLNSQPHARGSSRAIFSVGPVSPSRRWWYRCYAYPIWTPYEWSLPSDLLELDVDG
≤ 1000 | ≤ 2 | SEQ ID NO 10 (receptor) MAGHLPKPTLWAEPGSVITMDQPVTLRCQGGQETQEYRLYREKKTAPWITRIPQELVKKGQFPIPSITWEHAGRYRCYYGSDTSQWSASSDPLELVVTGVYIKPTLSAQPSPVVNSGGNVTLQCDSQVAFDGFILCKEGEDEHPQCLNSQPHARGSSRAIFSVGPVSPSRRWWYRCYAYTDYSPYEWSLPSDLLELDVDG
≤ 1000 | ≤ 2 | SEQ ID NO 34 (receptor) MAGHLPKPTLWAEPGSVITQGSPVTLRCQGGQETQEYRLYREKKTAPWITRIPQELVKKGQFPIPSITWEHAGRYRCYYGSDTSQWSASSDPLELVVTGVYIKPTLSAQPSPVVNSGGNVTLQCDSQVAFDGFILCKEGEDEHPQCLNSQPHARGSSRAIFSVGPVSPSRRWWYRCYAYMNWAPYEWSLPSDLLELDVDG
≤ 1000 | ≤ 2 | SEQ ID NO 8 (receptor) MAGHLPKPTLWAEPGSVITMDQPVTLRCQGGQETQEYRLYREKKTAPWITRIPQELVKKGQFPIPSITWEHAGRYRCYYGSDTSQWSASSDPLELVVTGVYIKPTLSAQPSPVVNSGGNVTLQCDSQVAFDGFILCKEGEDEHPQCLNSQPHARGSSRAIFSVGPVSPSRRWWYRCYAYVAWAPYEWSLPSDLLELDVDG
≤ 1000 | ≤ 2 | SEQ ID NO 12 (receptor) MAGHLPKPTLWAEPGSVITMDQPVTLRCQGGQETQEYRLYREKKTAPWITRIPQELVKKGQFPIPSITWEHAGRYRCYYGSDTSQWSASSDPLELVVTGVYIKPTLSAQPSPVVNSGGNVTLQCDSQVAFDGFILCKEGEDEHPQCLNSQPHARGSSRAIFSVGPVSPSRRWWYRCYAYVSYWPYEWSLPSDLLELDVDG
≤ 1000 | ≤ 2 | SEQ ID NO 15 (receptor) MAQHLPKPTLWAEPGSVITMDQPVTLRCQGGQETQEYRLYREKKTAPWITRIPQELVKKGQFPIPSITWEHAGRYRCYYGSDTSQWSASSDPLELVVTGVYIKPTLSAQPSPVVNSGGNVTLQCDSQVSFDGFILCKEGEDEHPQCLNSQPHARGSSRAIFSVGPVSPSRRWWYRCYAYDSNSPYEWSLPSDLLELDVDG
≤ 1000 | ≤ 2 | SEQ ID NO 18 (receptor) MAGHLPKPTLWAEPGSVITMDQPVTLRCQGGQETQEYRLYREKKTAPWITRIPQELVKKGQFPIPSITWEHAGRYRCYYGSDTSQWSASSDPLELVVTGVYIKPTLSAQPSPVVNSGGNVTLQCDSQVAFDGFILCKEGEDEHPQCLNSQPHARGSSRAIFSVGPVSPSRRWWYRCYAYMSWAPYEWSLPSDLLELDVDG
